T1: G9a and GLP (Homo sapiens, UniProt Q96KQ7+Q9H9B1)
T1 sequence (Q96KQ7 2-1210 limits assumed): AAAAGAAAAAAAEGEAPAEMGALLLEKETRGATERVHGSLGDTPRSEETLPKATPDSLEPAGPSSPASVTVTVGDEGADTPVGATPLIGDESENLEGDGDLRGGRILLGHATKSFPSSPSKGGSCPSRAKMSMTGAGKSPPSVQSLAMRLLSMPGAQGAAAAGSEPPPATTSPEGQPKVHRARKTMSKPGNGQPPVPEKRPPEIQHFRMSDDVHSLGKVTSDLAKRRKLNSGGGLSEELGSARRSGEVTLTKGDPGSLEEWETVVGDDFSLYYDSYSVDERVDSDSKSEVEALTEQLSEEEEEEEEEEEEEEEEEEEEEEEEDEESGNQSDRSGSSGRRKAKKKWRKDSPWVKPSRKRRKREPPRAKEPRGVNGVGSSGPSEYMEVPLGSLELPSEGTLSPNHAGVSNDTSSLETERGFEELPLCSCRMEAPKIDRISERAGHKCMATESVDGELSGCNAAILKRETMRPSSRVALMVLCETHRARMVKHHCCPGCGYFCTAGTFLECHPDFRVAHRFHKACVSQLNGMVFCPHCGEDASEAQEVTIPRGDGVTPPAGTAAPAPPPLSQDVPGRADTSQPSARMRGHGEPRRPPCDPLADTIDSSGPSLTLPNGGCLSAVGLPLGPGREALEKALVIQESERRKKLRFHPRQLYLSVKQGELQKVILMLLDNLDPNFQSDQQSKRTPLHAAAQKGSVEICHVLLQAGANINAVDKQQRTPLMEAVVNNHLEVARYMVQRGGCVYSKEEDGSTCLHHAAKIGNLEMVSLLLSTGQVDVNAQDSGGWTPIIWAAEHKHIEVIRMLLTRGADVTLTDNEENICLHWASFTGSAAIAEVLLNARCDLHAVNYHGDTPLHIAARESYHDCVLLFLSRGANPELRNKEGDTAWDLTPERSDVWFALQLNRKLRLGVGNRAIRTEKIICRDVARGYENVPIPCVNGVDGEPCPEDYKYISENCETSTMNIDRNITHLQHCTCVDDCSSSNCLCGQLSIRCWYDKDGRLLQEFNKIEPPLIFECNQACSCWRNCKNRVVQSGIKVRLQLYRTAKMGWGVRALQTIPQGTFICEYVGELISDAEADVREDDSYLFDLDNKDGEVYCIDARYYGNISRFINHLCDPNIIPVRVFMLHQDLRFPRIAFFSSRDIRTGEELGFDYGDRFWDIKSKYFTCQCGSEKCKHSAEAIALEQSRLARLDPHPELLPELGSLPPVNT
T1 sequence (Q9H9B1 2-1298 limits assumed): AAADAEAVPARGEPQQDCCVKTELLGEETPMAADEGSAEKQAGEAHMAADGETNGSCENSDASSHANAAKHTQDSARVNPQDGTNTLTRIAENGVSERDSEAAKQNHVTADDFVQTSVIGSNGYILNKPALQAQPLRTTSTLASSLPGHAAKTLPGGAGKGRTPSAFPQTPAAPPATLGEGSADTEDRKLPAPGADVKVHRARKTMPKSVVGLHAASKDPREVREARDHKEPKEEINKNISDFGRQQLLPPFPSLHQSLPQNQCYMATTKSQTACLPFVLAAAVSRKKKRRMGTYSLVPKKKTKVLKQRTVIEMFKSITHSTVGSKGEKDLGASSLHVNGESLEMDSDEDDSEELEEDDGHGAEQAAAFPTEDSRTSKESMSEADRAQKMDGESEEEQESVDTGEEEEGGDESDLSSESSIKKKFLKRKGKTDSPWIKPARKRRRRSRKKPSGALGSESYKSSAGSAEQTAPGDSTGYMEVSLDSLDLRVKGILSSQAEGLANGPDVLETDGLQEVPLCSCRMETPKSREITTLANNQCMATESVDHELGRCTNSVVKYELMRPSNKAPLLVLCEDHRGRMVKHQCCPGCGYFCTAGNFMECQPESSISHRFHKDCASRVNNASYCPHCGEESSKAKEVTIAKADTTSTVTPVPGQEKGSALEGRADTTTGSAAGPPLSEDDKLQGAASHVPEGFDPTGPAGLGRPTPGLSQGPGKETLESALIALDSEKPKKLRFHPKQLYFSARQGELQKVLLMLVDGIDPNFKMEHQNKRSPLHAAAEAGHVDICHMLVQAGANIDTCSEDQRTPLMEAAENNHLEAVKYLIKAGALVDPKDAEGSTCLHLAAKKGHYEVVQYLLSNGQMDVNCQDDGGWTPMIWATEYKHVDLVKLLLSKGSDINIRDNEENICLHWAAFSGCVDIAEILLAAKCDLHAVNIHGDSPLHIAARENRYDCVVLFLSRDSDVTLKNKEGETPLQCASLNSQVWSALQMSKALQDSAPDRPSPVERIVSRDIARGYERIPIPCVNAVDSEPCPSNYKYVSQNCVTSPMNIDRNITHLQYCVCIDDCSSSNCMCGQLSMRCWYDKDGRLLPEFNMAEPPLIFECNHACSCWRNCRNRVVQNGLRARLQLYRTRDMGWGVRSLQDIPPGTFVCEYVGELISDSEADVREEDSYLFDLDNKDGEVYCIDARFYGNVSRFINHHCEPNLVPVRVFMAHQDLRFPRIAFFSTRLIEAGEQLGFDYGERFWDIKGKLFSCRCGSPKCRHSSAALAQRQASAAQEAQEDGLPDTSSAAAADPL

B1: SMARCA1 (protein, UniProt P28370 1-1042, looked up)
SWI/SNF-related …: MEQDTAAVAATVAAADATATIVVIEDEQPGPSTSQEEGAAAAATEATAATEKGEKKKEKNVSSFQLKLAAKAPKSEKEMDPEYEEKMKADRAKRFEFLLKQTELFAHFIQPSAQKSPTSPLNMKLGRPRIKKDEKQSLISAGDYRHRRTEQEEDEELLSESRKTSNVCIRFEVSPSYVKGGPLRDYQIRGLNWLISLYENGVNGILADEMGLGKTLQTIALLGYLKHYRNIPGPHMVLVPKSTLHNWMNEFKRWVPSLRVICFVGDKDARAAFIRDEMMPGEWDVCVTSYEMVIKEKSVFKKFHWRYLVIDEAHRIKNEKSKLSEIVREFKSTNRLLLTGTPLQNNLHELWALLNFLLPDVFNSADDFDSWFDTKNCLGDQKLVERLHAVLKPFLLRRIKTDVEKSLPPKKEIKIYLGLSKMQREWYTKILMKDIDVLNSSGKMDKMRLLNILMQLRKCCNHPYLFDGAEPGPPYTTDEHIVSNSGKMVVLDKLLAKLKEQGSRVLIFSQMTRLLDILEDYCMWRGYEYCRLDGQTPHEEREEAIEAFNAPNSSKFIFMLSTRAGGLGINLASADVVILYDSDWNPQVDLQAMDRAHRIGQKKPVRVFRLITDNTVEERIVERAEIKLRLDSIVIQQGRLIDQQSNKLAKEEMLQMIRHGATHVFASKESELTDEDITTILERGEKKTAEMNERLQKMGESSLRNFRMDIEQSLYKFEGEDYREKQKLGMVEWIEPPKRERKANYAVDAYFREALRVSEPKIPKAPRPPKQPNVQDFQFFPPRLFELLEKEILYYRKTIGYKVPRNPDIPNPALAQREEQKKIDGAEPLTPEETEEKEKLLTQGFTNWTKRDFNQFIKANEKYGRDDIDNIAREVEGKSPEEVMEYSAVFWERCNELQDIEKIMAQIERGEARIQRRISIKKALDAKIARYKAPFHQLRIQYGTSKGKNYTEEEDRFLICMLHKMGFDRENVYEELRQCVRNAPQFRFDWFIKSRTAMEFQRRCNTLISLIEKENMEIEERERAEKKKRATKTPMVKFSAFS
B2: YTHDC2 (protein, UniProt Q9H6S0 1-1430, looked up)
3'-5' RNA helicase YTHDC2: MSRPSSVSPRQPAPGGGGGGGPSPCGPGGGGRAKGLKDIRIDEEVKIAVNIALERFRYGDQREMEFPSSLTSTERAFIHRLSQSLGLVSKSKGKGANRYLTVKKKDGSETAHAMMTCNLTHNTKHAVRSLIQRFPVTNKERTELLPKTERGNVFAVEAENREMSKTSGRLNNGIPQIPVKRGESEFDSFRQSLPVFEKQEEIVKIIKENKVVLIVGETGSGKTTQIPQFLLDDCFKNGIPCRIFCTQPRRLAAIAVAERVAAERRERIGQTIGYQIRLESRVSPKTLLTFCTNGVLLRTLMAGDSTLSTVTHVIVDEVHERDRFSDFLLTKLRDLLQKHPTLKLILSSAALDVNLFIRYFGSCPVIYIQGRPFEVKEMFLEDILRTTGYTNKEMLKYKKEKQQEEKQQTTLTEWYSAQENSFKPESQRQRTVLNVTDEYDLLDDGGDAVFSQLTEKDVNCLEPWLIKEMDACLSDIWLHKDIDAFAQVFHLILTENVSVDYRHSETSATALMVAAGRGFASQVEQLISMGANVHSKASNGWMALDWAKHFGQTEIVDLLESYSATLEFGNLDESSLVQTNGSDLSAEDRELLKAYHHSFDDEKVDLDLIMHLLYNICHSCDAGAVLIFLPGYDEIVGLRDRILFDDKRFADSTHRYQVFMLHSNMQTSDQKKVLKNPPAGVRKIILSTNIAETSITVNDVVFVIDSGKVKEKSFDALNFVTMLKMVWISKASAIQRKGRAGRCRPGICFRLFSRLRFQNMLEFQTPELLRMPLQELCLHTKLLAPVNCPIADFLMKAPEPPPALIVRNAVQMLKTIDAMDTWEDLTELGYHLADLPVEPHLGKMVLCAVVLKCLDPILTIACTLAYRDPFVLPTQASQKRAAMLCRKRFTAGAFSDHMALLRAFQAWQKARSDGWERAFCEKNFLSQATMEIIIGMRTQLLGQLRASGFVRARGGGDIRDVNTNSENWAVVKAALVAGMYPNLVHVDRENLVLTGPKEKKVRFHPASVLSQPQYKKIPPANGQAAAIKALPTDWLIYDEMTRAHRIANIRCCSAVTPVTILVFCGPARLASNALQEPSSFRVDGIPNDSSDSEMEDKTTANLAALKLDEWLHFTLEPEAASLLLQLRQKWHSLFLRRMRAPSKPWSQVDEATIRAIIAVLSTEEQSAGLQQPSGIGQRPRPMSSEELPLASSWRSNNSRKSSADTEFSDECTTAERVLMKSPSPALHPPQKYKDRGILHPKRGTEDRSDQSSLKSTDSSSYPSPCASPSPPSSGKGSKSPSPRPNMPVRYFIMKSSNLRNLEISQQKGIWSTTPSNERKLNRAFWESSIVYLVFSVQGSGHFQGFSRMSSEIGREKSQDWGSAGLGGVFKVEWIRKESLPFQFAHHLLNPWNDNKKVQISRDGQELEPLVGEQLLQLWERLPLGEKNTTD

How the values were obtained:
G9a and GLP = target: T1, G9a and GLP; assay: Triple SILAC pull-down after UNC0638 treatment of 293T cells, DMSO/UNC0638 ratio of protein captured by 3×MBT; assay type: cell-based; design: endogenous in cells; host or cells: HEK 293T; settings: all values in log base 2; for Relative to UNC0638 UNC Heavy / Relative to UNC0638 UNC Light: SILAC ratio DMSO relative to UNC0638, pull-down with 3xMBT; for Relative to UNC0638 UNC Heavy: UNC0638 in heavy SILAC media; for Relative to UNC0638 UNC Light: UNC0638 in light SILAC media; for Relative to UNC0638 Average: average of UNC Light and UNC Heavy experiments;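 as to all read-outs here: mass spectrometry (Q-Exactive) SILAC quantitation, DMSO/UNC0638 ratio computed after subtracting 3×MBTD355N mutant pull-down background, only proteins with at least twofold 3×MBT over mutant signal considered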
3×MBT domain of L3MBTL1 = assay: Triple SILAC pull-down, 3xMBT/3xMBTD355N ratio (cytoplasmic, nuclear and chromatin fractions of 293T cells); assay type: binding, human; settings: SILAC ratio 3xMBT vs 3xMBTD355N pull-down, 293T cells, all values in log base 2; for 3xMBT/D355N UNC Heavy: experiment with UNC0638 in heavy SILAC media; for 3xMBT/D355N UNC Light: experiment with UNC0638 in light SILAC media;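 as to all read-outs here: proteins quantified with MaxQuant, requiring at least two unique peptides and quantification in both label directions, normalized to the mean of proteins from a digested loading control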

Row | Molecule | Relative to UNC0638 UNC Heavy (G9a and GLP) [log base 2] | Relative to UNC0638 UNC Light (G9a and GLP) [log base 2] | Relative to UNC0638 Average (G9a and GLP) [log base 2] | 3xMBT/D355N UNC Heavy (3×MBT domain of L3MBTL1) [log base 2] | 3xMBT/D355N UNC Light (3×MBT domain of L3MBTL1) [log base 2]
1 | B1 | −0.35 | 0.18 | −0.09 | 0.79 | 3.03
2 | B2 | −0.10 | −0.07 | −0.08 | 1.74 | 2.87

— patent US20140274782A1, “AFFINITY REAGENTS AND METHODS FOR DETECTION, PURIFICATION, AND PROTEOMIC ANALYSIS OF METHYLATED PROTEINS” (The Board of Trustees of the Leland Stanford Junior …, priority 2013, published 2014)
